Changes are numbered by the printed parent chain.

One series concerns the target T1, RhpR (Pseudomonas syringae, UniProt A0ABY1U8E6).
T1 construct: gene virG; full-length, N-terminal His6 tag (pMCSG19, MBP cut off in vivo), E. coli BL21 star (DE3)
Nature of the series: […] phosphorylation, autoradiography. It counts as biochemical. Conditions: phosphodonor; covalent phosphorylation (putative site Asp70); labelled compound; 37 °C, 30 min.

In series [1] the test system is T2, RhpRpsph (Pseudomonas syringae pv. phaseolicola), ORF:976030cf.
T2 sequence: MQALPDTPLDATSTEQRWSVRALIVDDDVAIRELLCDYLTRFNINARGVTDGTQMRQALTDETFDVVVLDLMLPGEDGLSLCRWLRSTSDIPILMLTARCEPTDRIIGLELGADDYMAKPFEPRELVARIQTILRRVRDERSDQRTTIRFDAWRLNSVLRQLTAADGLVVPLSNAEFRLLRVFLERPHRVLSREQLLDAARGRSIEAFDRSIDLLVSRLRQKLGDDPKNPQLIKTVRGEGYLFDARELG
The series can be described thus: EMSA. Conditions: 10 mM Tris-HCl pH 7.4, 50 mM KCl, 5 mM MgCl2, 10% glycerol, 3 ug/ml sheared salmon sperm DNA, room temperature.

Series [2] deals with T3, RhpR (Pseudomonas syringae pv. tomato DC3000?), ORF:d96f1ca2.
T3 sequence: T2 sequence with D6E, T7N, P8T, E15D, T53S
Nature of the series: EMSA. Particulars: 10 mM Tris-HCl pH 7.4, 50 mM KCl, 5 mM MgCl2, 10% glycerol, 3 ug/ml sheared salmon sperm DNA, room temperature.

Series [3] deals with RhpR (Pseudomonas syringae pv. tomato DC3000?). Nature of the series: EMSA. Particulars: 10 mM Tris-HCl pH 7.4, 50 mM KCl, 5 mM MgCl2, 10% glycerol, 3 ug/ml sheared salmon sperm DNA, room temperature.

In the case of `CC(=O)OP(=O)(O)O` [acetyl phosphate], the “32P phosphorylation, autoradiography” value on RhpR was “The phosphorylated RhpR was readily detected”.
As for “ATATTACCGCGCAAACCATCGACCAGGATTTTGCCCGCAACGGCAAGATTCACCGCGCCTGGAAAATCATGGCGCGTGCCTGATACGGTGTGTGATGAGCTTGCCTGTAACAGTTTTGTACAGGTTTGCTCATCGCTCCCTATGAAAATTACTGGCGAATAGCTATAACAGAAGTCATAGCCAGCTTGACGCTTCAGCATGTTGGCGTCATGAGTTTCTG (double strand) [rlmL]”, the binding result in series [1] was “binds”.
Consider “CGCCTGGCGAATGTCTTATGGCAGCTTATTCGCAGCAGCAACTCATAGGCATCGGGGGGCTATCGGTCGATCCGTATATCAAAACTGATACCGCAAGGCTAAGGCGTGTGTACGTAACACCTACTGTAAGGAGGCAACATGTAGGTCAGGCGCTGGTAAAAGCATTGATTGCGCAGGCCGCGCTTCGTTTTCAGTGCGTGCGTCTTTCCACTGACACCTCTGAAGGCGATGCGTTTTACCTGCGTTGCGG (double strand) [PSPPH4977]”, for which the binding entry in series [1] is recorded as “binds”.
In the case of “GCAGGAACCCCTCTCGTTATCGGGTTGTCGACAACAGACTGGCTGTTAAAACCTGTTCAGAGTGTGAACAGAGCCTGGACACCTGAATTTTCATTACGAGAGGTTGCC (double strand) [PSPTO_1489 promoter]”, in series [2], the binding result was “no binding”.
On to “GGGAACAGTTTGCGTTTTTCAGCCAGCCTCACTCATTAGCTGGATAAGCAGACAGGCGTTCTTTCACTTGATTCCGGTACAAGTTCTCATAACGATTGAAAGCCTGCTGCATCGATTCATCTATCCATGTATAAATGCTGTTACACATTGGCCCATCTCTGGAGACTCAGCGCATGCGTTACGCGCTCGATCATAAGGCCCAAACCCATCAACGTATCGTCAAGGAAGCGTCCATGCGCTTTCGTCGCGATGGCATTGGTGCTACGGGCTTACAACCTT (double strand) [PSPPH3654]”, for which the binding entry in series [1] was “binds”.
For the compound “TACAAGGGGTAGGGCTGTGACTGTCAGAAAGGTCCTATGCCCCGACACCTGCACGGTATAGAACACGCCAAACATCACGGCCATACGCCACCATCCGCTCTCCCGAATGTTCAGCAAAAGTACAGATACATCCTGCTACAACAATCCTTGCGCAGAAACATTTGAGCGACTGGGCACTGCGTTCAGCGCCACTGCACCTGCGGATGATTCCGAGGAGGCAACATGTTCTTAAGGTATGGGGTATTGATCGCATCACTTGCGATAGCGTCA (double strand) [PSPPH1086]”, the binding result in series [1] is reported as “binds”.
For “TTCGATACTTAGCGGATCAGGCATTATCGCATCGCCGCAAAAAATAATCCTGCCGCCGGGAGGAGAGCACACGGTTAGATTGCGCTCGTTGTCGAGTCCAAATAAAGAGTTGTTATATCGTGTATATGTCGAGACTGTAGCTGCGAATACGGATGAAGATCATGTGGTTACAGAGGGGGGTGGCAGCGTTGGTATTAGTCTAACATGGGGG (double strand) [PSPPH0775]”, the binding result in series [1] is on record as “no binding”.
The compound rhpR promoter EMSA probe registered a binding signal (fold affinity vs unphosphorylated RhpR) in series [3] of 8. The compound also registered a binding signal in series [3] (scale: fold affinity vs unphosphorylated RhpR) of 8.
